Here are results for one protein from PMC7023490, “An M29 Aminopeptidase from Listeria Monocytogenes Contributes to In Vitro Bacterial Growth but not to Intracellular Infection” (Microorganisms, 2020).

What all share (test): purified protein
Holding throughout (conditions): 25 mM Tris-HCl pH 7.4, 37 °C, 0.05 μM enzyme, no added metal mentioned

Substrate in data set [1]: CC(C)C[C@H](N)C(=O)Nc1ccc([N+](=O)[O-])cc1
Substrate in data set [2]: C[C@H](N)C(=O)Nc1ccc([N+](=O)[O-])cc1
Substrate in data set [3]: N=C(N)NCCC[C@H](N)C(=O)Nc1ccc([N+](=O)[O-])cc1
Substrate in data set [4]: NCCCC[C@H](N)C(=O)Nc1ccc([N+](=O)[O-])cc1
Substrate in data set [5]: N[C@@H](Cc1ccccc1)C(=O)Nc1ccc([N+](=O)[O-])cc1

B1: LmAmpII (Listeria monocytogenes EGD-e) (protein)
chain: MTVFSEKLEKYAELIVKVGVNVQPEQKVVIMAPVDAAPLVRLISKYAFEVGAEDVIMDWRDEELGALRYKNAPLRVFESAPVHRVAEKTELAKEGACFISITSEDPDLLNGVDSNKIATFQKTMGGAMSEFRELMQANVVSWTVVAAASQGWAAKVFPDLTPAEQMETLWEAIFETTRINTENPVETWKNHDQTLAAKAESLNEKQFTSLHYTAPGTDLTIGLPKNHLWVGAGSKNKKGHEFMANMPTEEVFCCADKLKVEGYVSSTKPLSYAGNIIDDFKITFEKGRIVGVEAASGEEILKDLIATDEGSHYLGEVALVPDPSPISQSGILFYNTLFDENASNHLAIGSAYAFNVKGGEEMSREELEAAGVNNSLTHVDFMIGSSEMDIDGVTESGEVVPVFRKGDWAF
One may read the Km as the concentration of substrate that gives half-maximal velocity. With B1, the Km in the data set “purified protein [1]” was determined as 95.62 µM; in the data set “purified protein [2]”, 340 µM; in the data set “purified protein [3]” it was 24.94 µM; in “purified protein [4]”, 165.6 µM; in the data set “purified protein [5]” it was 399.6 µM.
